Assay results as given in publication PMC3626704 (BMC Biochemistry, 2013).

How the values were obtained:
Settings in all cases: one partner purified
5-Helix [1] = biological target: T1, 5-Helix (HIV-1 group M subtype B, HXB2 (gp41 …, stabilised)); test: ELISA
T1 construct: also called designed protein based on HIV-1 gp41

6-Helix-Fd = biological target: T2, 6-Helix-Fd (HIV-1 gp41 (HXB2-like, printed sequence), stabilised); test: ELISA; competitive phage ELISA, on-phage bivalent scFv: binding to immobilised 5-Helix inhibited by free 5-Helix or free 6-Helix-Fd (concentrations for the trimer); apparent
T2 construct: also called post-fusion six-helix bundle mimic
T2 chain: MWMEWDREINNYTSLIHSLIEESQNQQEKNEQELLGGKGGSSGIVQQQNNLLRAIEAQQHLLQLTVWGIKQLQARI

5-Helix [2] = biological target: T1, 5-Helix; test: as above

B1: 16F5 bivalent scFv on phage (scFv, V domains shown)
VH: QVQLVQSGAEVRKPGASVKVSCKASGDTFSSYAISWVRQAPGQGLEWMGGIIPIFGTANYAQAFQGRVTITANESTSTAYMELSSLRSEDTAIYYCARDNPTLLGSDYWGAGTLVTVSS
VL: DIQMTQSPSTLSASIGDRVTITCRASENINDHLAWYQQKPGKAPKLLISRAYRLASGAPSRFSGSGSGTDFTLTISSLQPDDFATYYCQQYADTPFTFGGGTKLEIK
- F_competitive (signal with 40 nM free 5-Helix / signal without) (5-Helix [1]): 0.2 fraction
- phage ELISA signal OD450 (5-Helix [1]): 3 OD450

B2: D5 bivalent scFv (biv-scFv) displayed on M13 phage (scFv, V domains shown)
VH: QVQLVQSGAEVRKPGASVKVSCKASGDTFSSYAISWVRQAPGQGLEWMGGIIPIFGTANYAQAFQGRVTITANESTSTAYMELSSLRSEDTAIYYCARDNPTLLGSDYWGAGTLVTVSS
VL: DIQMTQSPSTLSASIGDRVTITCRASEGIYHWLAWYQQKPGKAPKLLIYKASSLASGAPSRFSGSGSGTDFTLTISSLQPDDFATYYCQQYSNYPLTFGGGTKLEIK
- IC50 (6-Helix-Fd): 11 nM
- IC50 (5-Helix [2]): 0.1 nM

B3: 25B8 bivalent scFv on phage (scFv, V domains shown)
VH: QVQLVQSGAEVRKPGASVKVSCKASGDTFSSYAISWVRQAPGQGLEWMGGIIPIFGTANYAQAFQGRVTITANESTSTAYMELSSLRSEDTAIYYCARDNPTLLGSDYWGAGTLVTVSS
VL: DIQMTQSPSTLSASIGDRVTITCRASENINRNLAWYQQKPGKAPKLLISRASRLASGAPSRFSGSGSGTDFTLTISSLQPDDFATYYCQQRYNYPYTFGGGTKLEIK
- IC50 (6-Helix-Fd): ~100 nM
- IC50 (5-Helix [2]): 3.1 nM
- F_competitive (signal with 40 nM free 5-Helix / signal without) (5-Helix [1]): 0.2 fraction
- phage ELISA signal OD450 (5-Helix [1]): 2.9 OD450

B4: 25D8 bivalent scFv on phage (scFv, V domains shown)
VH: QVQLVQSGAEVRKPGASVKVSCKASGDTFSSYAISWVRQAPGQGLEWMGGIIPIFGTANYAQAFQGRVTITANESTSTAYMELSSLRSEDTAIYYCARDNPTLLGSDYWGAGTLVTVSS
VL: DIQMTQSPSTLSASIGDRVTITCRASEGISSNLAWYQQKPGKAPKLLISRAYRLASGAPSRFSGSGSGTDFTLTISSLQPDDFATYYCQQRATYPLTFGGGTKLEIK
- IC50 (6-Helix-Fd): ~3000 nM
- IC50 (5-Helix [2]): 5.8 nM
- F_competitive (signal with 40 nM free 5-Helix / signal without) (5-Helix [1]): 0.2 fraction
- phage ELISA signal OD450 (5-Helix [1]): 3.2 OD450

B5: 25A5 bivalent scFv on phage (scFv, V domains shown)
VH: QVQLVQSGAEVRKPGASVKVSCKASGDTFSSYAISWVRQAPGQGLEWMGGIIPIFGTANYAQAFQGRVTITANESTSTAYMELSSLRSEDTAIYYCARDNPTLLGSDYWGAGTLVTVSS
VL: DIQMTQSPSTLSASIGDRVTITCRASESIRSHLAWYQQKPGKAPKLLISRASRLASGAPSRFSGSGSGTDFTLTISSLQPDDFATYYCQQSSDYPHTFGGGTKLEIK
- F_competitive (signal with 40 nM free 5-Helix / signal without) (5-Helix [1]): 0.1 fraction
- phage ELISA signal OD450 (5-Helix [1]): 3.5 OD450

B6: 25A10 bivalent scFv on phage (scFv, V domains shown)
VH: QVQLVQSGAEVRKPGASVKVSCKASGDTFSSYAISWVRQAPGQGLEWMGGIIPIFGTANYAQAFQGRVTITANESTSTAYMELSSLRSEDTAIYYCARDNPTLLGSDYWGAGTLVTVSS
VL: DIQMTQSPSTLSASIGDRVTITCRASESISHNLAWYQQKPGKAPKLLISNASRLASGAPSRFSGSGSGTDFTLTISSLQPDDFATYYCQQYSNYPLTFGGGTKLEIK
- IC50 (6-Helix-Fd): 260 nM
- IC50 (5-Helix [2]): 1.6 nM
- F_competitive (signal with 40 nM free 5-Helix / signal without) (5-Helix [1]): 0.1 fraction
- phage ELISA signal OD450 (5-Helix [1]): 3.2 OD450

B7: 25C10 bivalent scFv on phage (scFv, V domains shown)
VH: QVQLVQSGAEVRKPGASVKVSCKASGDTFSSYAISWVRQAPGQGLEWMGGIIPIFGTANYAQAFQGRVTITANESTSTAYMELSSLRSEDTAIYYCARDNPTLLGSDYWGAGTLVTVSS
VL: DIQMTQSPSTLSASIGDRVTITCRASENIYGNLAWYQQKPGKAPKLLISRASRLASGAPSRFSGSGSGTDFTLTISSLQPDDFATYYCQQRYTYPLTFGGGTKLEIK
- IC50 (6-Helix-Fd): 28 nM
- IC50 (5-Helix [2]): 1.8 nM
- F_competitive (signal with 40 nM free 5-Helix / signal without) (5-Helix [1]): 0.1 fraction
- phage ELISA signal OD450 (5-Helix [1]): 3.2 OD450
